This is an account of results in PMC5498027.

B1: human Kif5A, first 560 amino acids, wild type, fused to EGFP and a C-terminal 6xHIS tag, Q12840 S203C (protein)
chain: MAETNNECSIKVLCRFRPLNQAEILRGDKFIPIFQGDDSVVIGGKPYVFDRVFPPNTTQEQVYHACAMQIVKDVLAGYNGTIFAYGQTSSGKTHTMEGKLHDPQLMGIIPRIARDIFNHIYSMDENLEFHIKVSYFEIYLDKIRDLLDVTKTNLSVHEDKNRVPFVKGCTERFVSSPEEILDVIDEGKSNRHVAVTNMNEHSCRSHSIFLINIKQENMETEQKLSGKLYLVDLAGSEKVSKTGAEGAVLDEAKNINKSLSALGNVISALAEGTKSYVPYRDSKMTRILQDSLGGNCRTTMFICCSPSSYNDAETKSTLMFGQRAKTIKNTASVNLELTAEQWKKKYEKEKEKTKAQKETIAKLEAELSRWRNGENVPETERLAGEEAALGAELCEETPVNDNSSIVVRIAPEERQKYEEEIRRLYKQLDDKDDEINQQSQLIEKLKQQMLDQEELLVSTRGDNEKVQRELSHLQSENDAAKDEVKEVLQALEELAVNYDQKSQEVEEKSQQNQLLVDELSQKVATMLSLESELQRLQEVSGHQRKRIAEVLNGLMKDLSE
B2: human Kif5A, first 560 amino acids, wild type, fused to EGFP and a C-terminal 6xHIS tag, Q12840 E251K (protein)
chain: B1 chain with C203S, E251K
B3: human Kif5A, first 560 amino acids, wild type, fused to EGFP and a C-terminal 6xHIS tag, Q12840 M198T (protein)
chain: B1 chain with M198T, C203S
B4: human Kif5A, first 560 amino acids, wild type, fused to EGFP and a C-terminal 6xHIS tag, Q12840 S202N (protein)
chain: B1 chain with S202N, C203S
B5: human Kif5A, first 560 amino acids, wild type, fused to EGFP and a C-terminal 6xHIS tag, Q12840 R204Q (protein)
chain: B1 chain with C203S, R204Q
B6: human Kif5A, first 560 amino acids, wild type, fused to EGFP and a C-terminal 6xHIS tag, Q12840 R204W (protein)
chain: B1 chain with C203S, R204W

Numbering of substitutions follows the chain as printed. Numbers in names are those of the source.

T1 sequence (chain, as listed by the source, chain 1 of 2): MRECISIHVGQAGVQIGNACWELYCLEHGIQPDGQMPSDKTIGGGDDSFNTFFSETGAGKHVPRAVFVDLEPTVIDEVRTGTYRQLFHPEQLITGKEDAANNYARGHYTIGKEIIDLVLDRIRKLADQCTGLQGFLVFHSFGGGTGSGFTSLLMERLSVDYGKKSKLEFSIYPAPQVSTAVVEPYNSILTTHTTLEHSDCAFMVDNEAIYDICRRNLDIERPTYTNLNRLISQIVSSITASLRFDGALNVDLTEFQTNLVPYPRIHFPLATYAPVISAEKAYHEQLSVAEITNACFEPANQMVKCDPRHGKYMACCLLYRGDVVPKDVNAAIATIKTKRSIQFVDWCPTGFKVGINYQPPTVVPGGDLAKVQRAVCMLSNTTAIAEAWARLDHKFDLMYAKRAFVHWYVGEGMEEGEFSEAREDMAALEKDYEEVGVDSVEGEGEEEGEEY
T1 sequence (Q6B856 whole entry, chain 2 of 2): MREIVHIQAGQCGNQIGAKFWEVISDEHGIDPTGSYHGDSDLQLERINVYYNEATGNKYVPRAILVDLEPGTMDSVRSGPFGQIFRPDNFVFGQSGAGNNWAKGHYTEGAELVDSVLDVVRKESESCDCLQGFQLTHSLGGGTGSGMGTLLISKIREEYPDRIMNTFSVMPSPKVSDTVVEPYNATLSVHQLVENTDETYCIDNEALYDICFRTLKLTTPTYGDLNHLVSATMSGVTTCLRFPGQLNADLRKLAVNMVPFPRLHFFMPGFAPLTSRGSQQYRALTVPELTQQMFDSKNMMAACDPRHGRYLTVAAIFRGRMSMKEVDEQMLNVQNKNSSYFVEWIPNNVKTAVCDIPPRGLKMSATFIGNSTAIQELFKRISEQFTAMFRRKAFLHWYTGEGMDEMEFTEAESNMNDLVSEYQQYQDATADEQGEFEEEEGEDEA

The first assay concerns the target T1, taxol-stabilized microtubules polymerized from bovine brain tubulin, Q6B856. Nature of the assay: MT pelleting assay (western blot densitometry). The following applies: chain shown with the change; 5 mM AMPPNP; 2 µM tubulin; read off a plot. On the technique in general: A western blot detects proteins with antibodies after separation by electrophoresis.
Consider B1, for which the response (fraction Kif5A bound) worked out at 0.7.

B2 had a response (fraction Kif5A bound) of 0.56.

As for B3, the response (fraction Kif5A bound) came out at 0.94.

As to B4, the response (fraction Kif5A bound) came out at 0.9.

B5 returned a response (fraction Kif5A bound) of 0.8.

In the case of B6, the response (fraction Kif5A bound) amounted to 0.44.

The same assay, now with this note: chain shown with the change; 5 mM AMPPNP; 4 µM tubulin; read off a plot.
On to B1, for which the response (fraction Kif5A bound) stood at 0.83.

Regarding B2, the response (fraction Kif5A bound) worked out at 0.63.

With B3, the response (fraction Kif5A bound) was determined as 0.95.

In the case of B4, the response (fraction Kif5A bound) is 0.91.

Molecule B5 displayed a response (fraction Kif5A bound) of 0.73.

In turn, B6 displayed a response (fraction Kif5A bound) of 0.41.

The assay is the same for the next values; noted with them: chain shown with the change; 5 mM AMPPNP; 8 µM tubulin; read off a plot.
B1 registered a response (fraction Kif5A bound) of 0.8.

Molecule B2 came in with a response (fraction Kif5A bound) of 0.73.

For B3, the response (fraction Kif5A bound) amounted to 0.94.

B4 yielded a response (fraction Kif5A bound) of 0.95.

As for B5, the response (fraction Kif5A bound) was 0.76.

Take B6: the response (fraction Kif5A bound) was determined as 0.36.

The target in another assay is T1, taxol-stabilized microtubules …. Briefly: MT pelleting assay (western blot densitometry), fitted curve. As to conditions: chain shown with the change; 5 mM AMPPNP; fitted curve read at 8 µM tubulin; parent: est. 0.95; read off a plot.
For the molecule B1, the response (fraction Kif5A bound) came to 0.86.

Take B2: the response (fraction Kif5A bound) is 0.74.

For the molecule B3, the response (fraction Kif5A bound) was 1.

As to B4, the response (fraction Kif5A bound) was 1.

For the molecule B5, the response (fraction Kif5A bound) worked out at 0.79.

For B6, the response (fraction Kif5A bound) was determined as 0.47.
